# Assay results published in article PMC1277818, “Substrate specificity analysis of protein kinase complex Dbf2-Mob1 by peptide library and proteome array screening” (BMC Biochemistry, 2005).
# T1: FHHDbf2-H6Mob1TM9 (Saccharomyces cerevisiae, UniProt P22204+P40484)
# T1 construct: made in house; host or cells: Hi5 insect cells (baculovirus)
# T1 sequence (P22204 1-572): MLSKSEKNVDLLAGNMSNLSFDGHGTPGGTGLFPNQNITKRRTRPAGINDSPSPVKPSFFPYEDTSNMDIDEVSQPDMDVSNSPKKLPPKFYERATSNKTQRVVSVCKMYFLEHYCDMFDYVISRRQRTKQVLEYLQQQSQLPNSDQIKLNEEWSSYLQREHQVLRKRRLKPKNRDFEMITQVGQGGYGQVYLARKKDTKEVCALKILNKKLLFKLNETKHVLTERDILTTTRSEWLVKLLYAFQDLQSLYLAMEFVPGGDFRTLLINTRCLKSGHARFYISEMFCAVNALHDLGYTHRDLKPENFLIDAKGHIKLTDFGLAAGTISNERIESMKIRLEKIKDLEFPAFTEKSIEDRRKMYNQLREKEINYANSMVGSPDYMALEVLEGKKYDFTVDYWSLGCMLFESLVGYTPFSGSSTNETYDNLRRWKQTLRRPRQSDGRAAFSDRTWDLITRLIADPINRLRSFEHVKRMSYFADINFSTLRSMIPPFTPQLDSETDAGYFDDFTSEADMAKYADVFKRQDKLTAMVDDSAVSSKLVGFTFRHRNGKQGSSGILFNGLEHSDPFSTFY
# T1 sequence (P40484 1-314 partner): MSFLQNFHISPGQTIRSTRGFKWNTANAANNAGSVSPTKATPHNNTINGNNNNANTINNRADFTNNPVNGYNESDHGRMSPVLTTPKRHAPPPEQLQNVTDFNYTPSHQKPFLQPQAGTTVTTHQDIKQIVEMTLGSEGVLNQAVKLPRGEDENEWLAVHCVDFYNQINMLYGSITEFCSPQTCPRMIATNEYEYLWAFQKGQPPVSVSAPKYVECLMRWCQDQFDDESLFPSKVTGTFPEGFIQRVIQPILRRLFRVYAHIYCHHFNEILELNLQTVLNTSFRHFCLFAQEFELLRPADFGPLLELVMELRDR
# B1: YKL140W: GST fusion yeast protein on proteome chip (protein, UniProt P34163 1-548, looked up)
# Sterol esterase TGL1: MYFPFLGRLSITDYIIVVLVYIESIISSVLKLIPQPMINLFEWLINFSTSSDDNTIEEKLRSAPTIHEMCAIFDISVEDHLVRTEDNYILTLHRIPPISKNRFNNKVVYLHHGLLMCSDVWCCNIERHKNLPFVLHDLGYDVWMGNNRGNKYSTAHLNKPPKSNKFWDFSIDEFAFFDIPNSIEFILDITKVDKVICIGFSQGSAQMFAAFSLSEKLNRKVSHFIAIAPAMTPKGLHNRIVDTLAKSSPGFMYLFFGRKIVLPSAVIWQRTLHPTLFNLCIDIANKILFNWKSFNILPRQKIASYAKLYSTTSVKSIVHWFQILRSQKFQMFEESDNMLNSLTRPYQIANFPTRTNIKIPILLIYGGIDSLVDIDVMKKNLPFNSVFDVKVDNYEHLDLIWGKDADTLVIAKVLRFIEFFNPGNVSVKTNQLLPSASLVEELPSTTWKTTHPTHGLSYRTHSADRSPLSVQADEADEVHNADNSRFLRRVFSTSAIDEDNENEHQDDTEDQIHKEQQRRLSAYLESSKDLRQLDANSSTTALDALNKE
# modifications: GST tag
# notes: GST fusion yeast protein on proteome chip
# B2: YCR105W: GST fusion yeast protein on proteome chip (protein, UniProt P25377 1-361, looked up)
# NADP-dependent alcohol …: MLYPEKFQGIGISNAKDWKHPKLVSFDPKPFGDHDVDVEIEACGICGSDFHIAVGNWGPVPENQILGHEIIGRVVKVGSKCHTGVKIGDRVGVGAQALACFECERCKSDNEQYCTNDHVLTMWTPYKDGYISQGGFASHVRLHEHFAIQIPENIPSPLAAPLLCGGITVFSPLLRNGCGPGKRVGIVGIGGIGHMGILLAKAMGAEVYAFSRGHSKREDSMKLGADHYIAMLEDKGWTEQYSNALDLLVVCSSSLSKVNFDSIVKIMKIGGSIVSIAAPEVNEKLVLKPLGLMGVSISSSAIGSRKEIEQLLKLVSEKNVKIWVEKLPISEEGVSHAFTRMESGDVKYRFTLVDYDKKFHK
# modifications: GST fusion
# notes: as for B1
# B3: YNL125C: GST fusion yeast protein on proteome chip (protein, UniProt P53918 1-673, looked up)
# Uncharacterized transporter …: MSTHSNDYFSASSGMVSETSSEVSSINSSQPVSFSKASIAAPVPCSDLHSTKSNDASRKLSISRTLTNRLNDIKKAVDDDNLQTEENSADVNKILESRFDVADAIRLQHNESVQSKLNIPVTHTTTAGASLSAPSSSAFSASSIQNDTTEHKASMDSKLMRNRLYPASTKHSGKDLEAQGITEFEPDEPTVKKVFTNKSTGQLELPPDGGYGWVVTFCVFLTMFSTWGCNASFGVDLAYYLNHDTYPGASKYDYALIAGLTVFLGQLLSPLVMALMRIIGLRTTMLFGDAVMLAAYLLASFTTKLWQLYVTQGFMVGCSISLIFVPATTVLPGWFLKKRAVAMGVSLLGTGAGGVVYGLATNKMLSDFGNTRWCLRIIGISCSISVLVAIALLKERNPTPAIGLKSPRAMFEQLKAMFSLKVITKPFVVLIALWFMFALFAYNMMVFTLSSYAISKGLSSHDASTLTAILNGSQSIGRPLMGLAGDKFGRANVTIVLTTLLTIYMFAFWIPAHTFVQLIFFSILVGSCVGVANVMNTVLIADMVKPEEFLPAWAFVNYCGAPFLLVCEVIAQALTVEKDKSNPYLHAQIFCGCCFIAALILISILREYSIRMKLTERQAMTNEKLKEWKASEYDTDSADEDWGKLKERKTKYDLLLGPGIKKYFLRMVYPMKV
# modifications: GST fusion
# notes: as for B1
# B4: YDL002C: GST fusion yeast protein on proteome chip (protein, UniProt Q03435 2-203, looked up)
# Non-histone protein 10: SVEEKKRRLEELKDQNVVLGLAIQRSRLSVKRLKLEYGVLLERLESRIELDPELNCEDPLPTLASFKQELLTKPFRKSKTKRHKVKERDPNMPKRPTNAYLLYCEMNKERIRQNGSLDVTRDLAEGWKNLNEQDRKPYYKLYSEDRERYQMEMEIYNKKISNIDADDDKEENEQKIKNNEEGSSTKVADSKGGEDGSLVSSN
# modifications: GST fusion
# notes: as for B1
# B5: YDL070W: GST fusion yeast protein on proteome chip (protein, UniProt Q07442 1-638, looked up)
# Bromodomain-containing factor …: MSRTNMDTRHAHSALLAAPQSATANSRSSNSSSESSSNKNNINVGVGDDSGNVSAVSIDDGPHFRDIFHYGHEENYKLASSGITNLNSSSHAHQTLSPISISNASTPESFPEHPLGLERETEPALEAEMEAEELPPHQSKYLLSSIKATKRLKDARPFLKPVDPIALNIPHYFNYVQTPMDLSLIETKLQGNVYHSVEQVTSDFKTMVDNCLNFNGPESSISSMAKRIQKYFEKKLSAMPPRVLPASALKKTSRNRKKNEDMDSPLVIRRSVSTTNDNIGESGNREGVSGGRPKRTIHPPKSKDLFDIYENSKPKSKTLQKKFRTCLKILKVLMSKKNSDINFPFLQPVDPIALNLPNYFDVVKNPMDLGTISNNLMNWKYKTIDQFVDDLNLVFYNCFQFNPEGNEVHSMGKKLKELFNFHWLENQDILNEIETDSDLEEDNYSSSYSSDDEYDDEDINENDITNPAIQYLEQKLKKMEVELQQLKRQELSKLSKERKRKHLGKTLLRRKAMKHSVDDLKKSITDKINELSDLEMNGMIRIIKNSLPADEILTSNEDEIEIDLDILDEATIARIYERYFEKKNNNNSKRKLSGNYSTAPTNKKKKTLKFLEKDEIINNNNYSDSEEDSSDSSDSDSD
# modifications: GST fusion
# notes: as for B1
# B6: YBL106C: GST fusion yeast protein on proteome chip (protein, UniProt P38163 1-1010, looked up)
# Lethal(2) giant larvae …: MFKKSRHLKNVSNAIKSARVHDVSNGINSKFFDTKKICTYGINGRITVTTFDYTQSLLAVATTAGEIHVYGQKQIEVVFTLKNRPQIKHMRFIKGIYLIAVDEKSNIIVLSVHSKQILTTVFCPNSITCIETDPSLDWMLIGLESGSILIYDVDRNQMSKLKIENFQKSVFLPKERLSPVISIQWNPRDIGTILISYEHITVIYSFIDYKVKQHFFYQLEPYAPGGDLSTNIEKKRTPKVIQSLYHPNSLHILTVHEDNSLVFWDVNSGKLIHARSIFETHVNFPNPALKDCSFTETPAIFKVSWLCQRNPEYTSLLIATKATENPCLPQEITMIDLGGTPMYSVTSFDAMSKYYAKPVQQKLFSLIGKAPLINFLPLPKASPYFGGCHDTNLILLLLEDGELETLIYPAGSFSSKASIFPRSLAWVRPTVTTCIAQSVQKNLWLGMMTIAQSESFLKGGIPATRNIRRHETRSALLTGHSNGSVRIWDASHSEVTDNAVFEVNTAKVLNRATNLAIKNISFASETLELAVSSEVGDVILFKFETNKFYGQLPKSDALQLKFSRFSLDDSKTILVDVSDRGPTNVKQGFIPSTVIHAKKGAVSAIMNSNIGFVAVGFIEGTLIILDRRGPAIIFNENIRVISKAGSSYVSTVHFCVMEYGDDGFSSILMLCGTDIGELMTFKILPATNGRFEVKFTDATKTNNQGKILGINSFAKDTGYSCSATISKMQGLSKGIAIPGFVTISGANDIRLVSPGKSKDTHALFKYPIATSGLSFIPIIDGKGERKLSTIMIVLLINGDIKVLTVPELKEVKNLRCPVPLSAQYVENSSILENGDIVIRTGKFQASLISVLNESATGTNHTADISQHTPIDTLYNPDLKIGYRPQVNSLQWARGTIYCTPYQLDELLGGIERPESKYEESAIARGCISSSSSNAARKLPPGTEDHRYARPVRSSGRSNGYGVLKSVSRAIETRLDTVETTINDYATTMGQTMNDAMEETGRDMMKSAVGF
# modifications: GST tag
# notes: as for B1
# B7: YMR072W: GST fusion yeast protein on proteome chip (protein, UniProt Q02486 27-183, looked up)
# ARS-binding factor 2, …: KASKRTQLRNELIKQGPKRPTSAYFLYLQDHRSQFVKENPTLRPAEISKIAGEKWQNLEADIKEKYISERKKLYSEYQKAKKEFDEKLPPKKPAGPFIKYANEVRSQVFAQHPDKSQLDLMKIIGDKWQSLDQSIKDKYIQEYKKAIQEYNARYPLN
# modifications: GST tag
# notes: as for B1
# Target: T1, FHHDbf2-H6Mob1TM9
# Experiment: Yeast proteome chip assay
# Assay type: biochemical
# Conditions: Table 3; GST fusion proteins on proteome chip, [γ-33P]ATP, chips in duplicate, computer analysis
# Protocol: The relatively low sequence complexity of the Dbf2 phosphorylation motif diminished the power of using genome-wide bioinformatics screens to identify putative substrates. Accordingly, we carried out a proteome array screen to identify putative yeast substrates. […] After taking into account the proteins phosphorylated in the negative controls, 67 proteins were determined to be putative Dbf2-Mob1 substrates (Table 3).
# Yeast proteome microarrays were prepared as previously described. Overexpressed GST-tagged yeast proteins were purified from ~4,400 yeast strains and spotted on slides. To determine the optimal amount of kinase to use for probing proteome chips, we performed trial assays as described (J. Ptacek et al., submitted). […] The full proteome array was probed with 4 μl ^FHHDbf2-^H6Mob1^TM9 in 200 μl of DKB supplemented with [γ-^33P]ATP. As a control, ^FHHDbf2(N305A)-^H6Mob1^TM9 was used to probe the proteome array. […] To control for autophosphorylated proteins, the proteome array was probed with 200 μl of DKB supplemented with [γ-^33P]ATP. Proteome chips were assayed in duplicate in each case. Data analysis was performed as described (J. Ptacek et al., submitted). Briefly, signals were analyzed by a computer algorithm designed to normalize background and identify signals as positive if 3 of 4 spots (each protein is spotted twice on each slide and each kinase or control was tested on 2 slides) were 2 standard deviations above background and the fourth spot was 1.5 standard deviations above background.
row,Molecule,Slide Signal (after normalization)
1,B1,0.6321
2,B2,0.6146
3,B3,0.5694
4,B4,0.8102
5,B5,0.6162
6,B6,0.5988
7,B7,0.7585
